Measurements from patent publication US20230105982A1, “INSULIN-INCRETIN CONJUGATES” (Merck Sharp & Dohme Corp., priority 2021, published 2023).

Legend:
[1] = molecular target: human insulin receptor (pAkt assay, CHO cells overexpressing human IR) (human) (UniProt P06213); assay: cell-based or functional assay
[2] = molecular target: minipig insulin receptor (minipig); assay: cell-based or functional assay

**Q.** Insulin levemir (ligand) was tested. Which Insulin Receptor pAK Assay EC50 [1] did it give?
**A.** 0.51 nM

**Q.** What about the Insulin Receptor pAK Assay EC50 [2] of the same substance?
**A.** 0.5 nM
